These are literature values, as cited in publication PMC8083718.

The target in the data set is ACE2 (Homo sapiens) (UniProt Q9BYF1).
ACE2 (Homo sapiens), sequence (Q9BYF1 18-740): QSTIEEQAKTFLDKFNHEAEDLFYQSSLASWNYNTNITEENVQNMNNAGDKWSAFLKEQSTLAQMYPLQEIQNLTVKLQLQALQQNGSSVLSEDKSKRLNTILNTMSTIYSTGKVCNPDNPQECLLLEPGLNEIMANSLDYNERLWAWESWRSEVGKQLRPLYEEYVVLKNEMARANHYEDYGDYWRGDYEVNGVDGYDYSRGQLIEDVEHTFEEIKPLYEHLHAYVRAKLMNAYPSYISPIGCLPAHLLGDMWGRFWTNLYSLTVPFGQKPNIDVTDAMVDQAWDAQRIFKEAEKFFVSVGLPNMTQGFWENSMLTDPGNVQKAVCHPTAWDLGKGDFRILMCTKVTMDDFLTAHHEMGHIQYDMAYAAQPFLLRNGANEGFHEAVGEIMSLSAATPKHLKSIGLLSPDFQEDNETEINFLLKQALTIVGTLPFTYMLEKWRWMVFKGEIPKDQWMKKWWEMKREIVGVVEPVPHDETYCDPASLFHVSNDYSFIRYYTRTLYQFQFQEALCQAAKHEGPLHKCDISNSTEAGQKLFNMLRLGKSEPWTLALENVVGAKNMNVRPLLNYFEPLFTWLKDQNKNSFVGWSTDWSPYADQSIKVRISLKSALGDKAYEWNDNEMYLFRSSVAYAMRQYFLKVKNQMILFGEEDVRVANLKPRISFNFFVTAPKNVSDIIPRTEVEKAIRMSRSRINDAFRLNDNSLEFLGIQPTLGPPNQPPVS

The term Kd denotes a measure of binding affinity in units of concentration. Consider spike protein (from UniProt P59594), for which the Kd was 0.12 nM.
